Assay: soluble on expression in E. coli; label from the status in PepcDB or PDB records

Sequence	soluble on expression in E. coli
MPDEKDKHEGTWLQWPHEYTYGEEYKKEVEPIWVKMASALTEGEKVHIVAYDQEEKERINNLLTDEGLNMEKIDFFIAPTDDVWARDSGPIFVYDSNKNLKILDPAFNGWGKKTPYKNDAQIRKNVSKQSGIERVDWGKFVLEGGAIELDSNGTALLTRSAVTNKNRNPDLSEKEIEKYISDLGVSNFIWLDGVPNLDITDFHIDGFAKFHNKSTIVTMKEDDLAEWGLSNKDMDTLLDAKNASGQKYKYEYLPLSKEKVALENGKTLDYKGSYINYYIGNTVVLVPNYNDPNDKIANDTIQKLYPDRKVVGIDVRELYKNGGMIHCVTQQQPIALKMAGDPLEHHHHHH	soluble
MTEPLFVITDRPISVEDVMKKVMRPEAGAVAVFAGTVREWTNGKRTLFLQYEAYVSMAEKMLAQIGAEIAEKWPGAKTAITHRIGRLEIGDIAVVIAVSSPHRAEAYEANRYAIERIKQIVPIWKKEQWEDGSAWVGDQLETTAYPSGKPEVSEE	soluble
MRIELSIKADDSLVSFSHQHLLVGTLQKWLGENDMHGKSISYSFSRLNGGKLVSELNSILFADWANMFVSAHDPELIRRMLAGIRQDPEMFKSLCVREVTVIEDPDMTDREIFFPASPILLKRWREDNGFDHIVYTDEAANALLTENLRKKLQAVGIDDPTATASFVPDQGKAKVMLIDYRGVKNKASWCPIRIIGNAETKLFAWNAGIGNSTGIGFGAIK	not soluble
SLAFVCLAIGCLYTFLISTTFGCTSSSDTEIKVNPPQDFEIVDPGYLGYMYLQWQPPLSLDHFKECTVEYELKYRNIGSETWKTIITKNLHYKDGFDLNKGIEAKIHTMLPWQCTNGSEVQSSWAETTYWIS	soluble
GSHMAKTLKDLDGWQVIITDDQGRVIDDNNRRRSRKRGGENVFLKRISDGLSFGKGESVIFNDNVTETYSVYLIHEIRLNTLNNVVEIWVFSYLRWFELKPKLYYEQFRPDLIKEDHPLEFYKDKFFNEVNKSELYLTAELSEIWLKDFIAVGQILPESQWNDSSIDKIEDRDFLVRYACEPTAEKFVPIDIFQIIRRVKEMEPKQSDEYLKRVSVPVSGQKTNRQVMHKMG	soluble
MNALIVPQWPLPKGVAACSSTRIGGVSLSPYDSLNLGAHCGDNPEHVEENRKRLFAAGNLPSKPVWLEQVHGKNVLRLTGEPYASKRADASYSNTPGTVCAVMTADCLPVLFCNREGTEVAAAHAGWRGLCEGVLEETVTCFADKPENIIAWLGPAIGPAAFEVGPEVRDAFLAKDAQADSAFLPHGEKFLADIYQLARQRLANTGVEHVYGGDRCTFSESETFFSYRRDKTTGRMASFIWLI	soluble
MSLIQIENQTVSGIPFLHIVKEENRHRAVPLVIFIHGFTSAKEHNLHIAYLLAEKGFRAVLPEALHHGERGEEMAVEELAGHFWDIVLNEIEEIGVLKNHFEKEGLIDGGRIGLAGTSMGGITTLGALTAYDWIKAGVSLMGSPNYVELFQQQIDHIQSQGIEIDVPEEKVQQLMKRLELRDLSLQPEKLQQRPLLFWHGAKDKVVPYAPTRKFYDTIKSHYSEQPERLQFIGDENADHKVPRAAVLKTIEWFETYLEGGSHHHHHH	soluble
MNISPKAIKVRNIWIGGTEPCICAPVVGEDDRKVLREAEEVCRKQPDLLEWRADFFRAIDDQERVLATANGLRNIAGEIPILFTIRSEREGGQPIPLNEAEVRRLIEAICRSGAIDLVDYELAYGERIADVRRMTEECSVWLVVSRHYFDGTPRKETLLADMRQAERYGADIAKVAVMPKSPEDVLVLLQATEEARRELAIPLITMAMGGLGAITRLAGWLFGSAVTFAVGNQSSAPGQIPIDDVRTVLSILQTYSR	soluble
MQGAQTSEDNLGSQSQPGPCGYIYFYPLATYPLREVATLGTGYAGHRCLTVPLLCGITVEPGFSINVKALHRRPDPNCGLLRATSYHRDIYVFHNAHMVPPIFEGPGLEALCGETREVFGYDAYSALPRESSKPGDFFPEGLDPSAYLGAVAITEAFKERLYSGNLVAIPSLKQEVAVGQSASVRVPLYDKEVFPEGVPQLRQFYNSDLSRCMHEALYTGLAQALRVRRVGKLVELLEKQSLQDQAKVAKVAPLKEFPASTISHPDSGALMIVDSAACELAVSYAPAMLEASHETPASLNYDSWPLFADCEGPEARVAALHRYNASLAPHVSTQIFATNSVLYVSGVSKSTGQGKESLFNSFYMTHGLGTLQEGTWDPCRRPCFSGWGGPDVTGTNGPGNYAVEHLVYAASFSPNLLARYAYYLQFCQGQKSSLTPVPETGSYVAGAAASPMCSLCEGRAPAVCLNTLFFRLRDRFPPVMSTQRRDPYVISGASGSYNETDFLGNFLNFIDKEDDGQRPDDEPRYTYWQLNQNLLERLSRLGIDAEGKLEKEPHGPRDFVKMFKDVDAAVDAEVVQFMNSMAKNNITYKDLVKSCYHVMQYSCNPFAQPACPIFTQLFYRSLLTILQDISLPICMCYENDNPGLGQSPPEWLKGHYQTLCTNFRSLAIDKGVLTAKEAKVVHGEPTCDLPDLDAALQGRVYGRRLPVRMSKVLMLCPRNIKIKNRVVFTGENAALQNSFIKSTTRRENYIINGPYMKFLNTYHKTLFPDTKLSSLYLWHNFSRRRSVPVPSGASAEEYSDLALFVDGGSRAHEESNVIDVVPGNLVTYAKQRLNNAILKACGQTQFYISLIQGLVPRTQSVPARDYPHVLGTRAVESAAAYAEATSSLTATTVVCAATDCLSQVCKARPVVTLPVTINKYTGVNGNNQIFQAGNLGYFMGRGVDRNLLQAPGAGLRKQAGGSSMRKKFVFATPTLGLTVKRRTQAATTYEIENIRAGLEAIISQKQEEDCVFDVVCNLVDAMGEACASLTRDDAEYLLGRFSVLADSVLETLATIASSGIEWTAEAARDFLEGVWGGPGAAQDNFISVAEPVSTASQASAGLLLGGGGQGSGGRRKRRLATVLPGLEV	soluble
MELSLSRVHFPVTTLGPGRRLGIWFQGCSIRCPGCISADTWGPGRRRIALARLLADIQPWLEQAEGITVSGGEPFEQFAALLALLGELRRRSRADILVYSGYPLEHLHAQLEQAAGLIDALISDPYQQHAEQSLALRGSDNQRLSLLTELGRARLGGYQRPLREDDKALDLMFDHDGSVWMAGIPRRDDLLRLQDLLREQGHQLSVSAHRPR	not soluble
MTGNEHSAIETYECDVLVAGSGASGMSAAITARYRGLDVLIVEKEPRFGGTTARSGGWLWIPGTSLAKAYGIEETPEQARTYLRHEAGNNFDGARIDAFLSAGPEAVDFFTTRTALRFDMPLVFPDYHAEAPGGAQGGRSMVTRPFDGRELGEQIRTLGMPLPELTVFGMMLGSGKEIIHFMRVTKSLTSAVYVAKRLSRHLMDVLHYGRGMTLTNGNALAGRLAKSALDLKIPMWLSSPVRELTVENGAVTGAIVSREGRKVRVRARQGVVLACGGFPHDVERRKKMFPHAPTGNEHFSPGPIGNTGDGLRLAESAGGHVEDRLPNAAAWVPVSLTTRKDGSKGVMPHFIDRAKPGVIAVMRDGRRFANEGNSYHDFVQAMVKAAKPGEEIAAYLVCDHKTLRKYGLGCVPPFPMPLGHHLSTGYLMRGDTLEALAAKAGIDATAFAETVRQFNTTAPLGHDAAFGKGSKAYNRYQGDALHGPNPCVAPIENGPFYAIKMVIGDLGTYAGIITDENARALDAEGRVIPGLYAAGNDMASIMGGNYPGAGITLGPALTFGYIAGRHLADSAAKRNAALEHHHHHH	not soluble
MSLGKYFGTDGVRGEANVELTPELAFKLGRFGGYVLSQHEPDRPRVFVARDTRISGELLESALVAGLLSVGIEVYKLGVLATPGVSYLVRTEQASAGVMISASHNPALDNGIKFFGGDGFKLADEQEAEIEALLDAKEDDLPRPSAQGLGMVVDYPEGLRKYEKFLVSTGSDLEGMKIAIDAANGAASYSARQVFLDLNADITVIGEEPDGLNINDGVGSTHPEQLQNLVKGSDFVIGLAFDGDSDRLIAVDENGEIVDGDKIMYIIGKYLSEKGRLSKNTIVTTVMSNLGFHKALDRENINKKITAVGDRYVVEEMRRSGYNLGGEQSGHVIIMDYNTTGDGQLTAIQLTKVMKETGKTLSELANEVTIYPQKLVNIYVKNDMKNKAMEVPMIAQIIEKMEAEMAGNGRILVRPSGTEPLLRVMAEAPSTEEVNYYVDTIAKVVKTEIGIEGHHHHHH	soluble
MGSDKIHHHHHHMKNRIEDRRIKYTKMVIKQSLITLLKNKPINKVTVTEICNLADINRSTFYTHYSNPYDLLDSIEEELFEEVKSSLRDSEGETKIENTVNEIFKAIAKNKELFKIFFSSHRDYGFLIKFFGAVYNNSIDNFKSAFKSNNDAQLEYLYNYILTGNASISYKWIKNGLKESPEEMASLVNRLIVHTMSFIK	not soluble
MSQNLFNVEDYRKLAQKRLPKMVYDYLEGGAEDEYGVKHNRDVFQQWRFKPKRLVDVSRRSLQAEVLGKRQSMPLLIGPTALNGALWPKGDLALARAATKAGIPFVLSTASNMSIEDLARQCDGDLWFQLYVIHREIAQGMVLKALHTGYTTLVLTTDVAVNGYRERDLHNRFKIPPFLTLKNFEGIDLGKMDKANLEMQAALMSRQMDASFNWEALRWLRDLWPHKLLVKGLLSAEDADRCIAEGADGVILSNHGGRQLDCAISPMEVLAQSVAKTGKPVLIDSGFRRGSDIVKALALGAEAVLLGRATLYGLAARGETGVDEVLTLLKADIDRTLAQIGCPDITSLSPDYLQNEGVTNTAPVDHLIGKGTHAHHHHHH	soluble
MKKEFSAGGVLFKDGEVLLIKTPSNVWSFPKGNIEPGEKPEETAVREVWEETGVKGEILDYIGEIHYWYTLKGERIFKTVKYYLMKYKEGEPRPSWEVKDAKFFPIKEAKKLLKYKGDKEIFEKALKLKEKFKL	soluble
MAHHHHHHMSTNINEEKCLEGDDIKYEKPDTHKNFWKSFGLNNEAGKLLYHLYGESNKIKPNILSSKHDGDKNKNDKKKEDAKLNTTYRKPQIHYPSLKKKAVKENPIDTIKHRKPLSKILEETQNYDCIKDIPISIGMNRETEKNKLHNIFVEEKCLMVPPSCAPMILTQEEKKEIIEKAQQRYIYINEENKSREEKHIQALRNYKLELIQELNEKRKLLQDIINEDKNIQGNISINQSDKRVSNKGNSYNIIQIKNDIEQCQKSIKKIEDNLNTYE	not soluble
MGSDKIHHHHHHMSQNVYIGMTLKPWPILLDHYSMSYDGRVSVKSIGYGMHLFKYHGCIMLATRTKVDSTMAYDTITVSAPWWAKDKLHSFLEDTRGDISTEPKVNIFEETEWCRYGILKSSGFSELVLDEGFKQELMGEVDNFASRGESVVSKLTILLHGKTGTGKTGIARALAVEYHRDLYILNLSTVNDATIHKAIRKVPPGAMLLIEDCDCVKATVSRTAESNADNPPLTLGGVLNALDGIIPLDDCLVIMTTNHPDNLDPALIRKGRVDVSIEVPLISAKQVNEDYFERFGAVLNRTEPLLGCEVYELHRRANLRYGVCCKPV	not soluble
AIADPAEVEFLAEKEMVKIIPNFSLDKIYLIGGDLGPFNPGLPVEVPVWLALNLKQRQKCRIVPPEWMDTDKLEDIREQERKLDTFTPIPNPYYMELTKLLLNHAADNIPKADEIRTLVKDIWDTRMAKLRLSADSFISQQEAHAQLDNLTLMEINTTRSFLLDSLNYMYKLRSNLQPGRSKDY	soluble
MREPYYKKLLGIKNYLIRKNYPEELEILIPKYVEENKELRGCIDCLSCLSVCPAREVSDYPGPTFMRQLARFAFDKRDEDGREITAYFENIYNCTTCAKCVEVCPKEIDIVHRAIEKLRALAFSKGYYIENHLEHHHHHH	not soluble
MNTLVLPKTQHLVVFQEVIRSGSIGSAAKSLGLTQPAVSKIISDVEAYFGVELIVRKNTGVTLTEAGQVLLSWSESITREMKNMINEMNSMTCNTVVDVSFGFPSLIGFTFMSDMIHKFKEVFPKAQVSMYEAQLSSFLPALRDGRLDFAIGTLSNEMQLQDLHVEPLFESEFVLVASKSRTCTGTITLESLKDEQWVLPQTNMGYYSELLTTLQRNGISIENIVKTDSVVTIYNLVLNADFLTVIPCDMTTPFGSNQFITIPIQDTLPVARYAAVWSKNYRIKKAASVLVELAKQYSSYNGCRRRQLIEIE	soluble

From the DeepSol protein solubility set
